In article PMC10397247 one finds interaction score data, which are given here for 12 molecules.

Common to all, as to experiment: two-hybrid library CCmax;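 also: natural log of median RNA to DNA barcode read ratio; higher means stronger binding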
Test [1] deals with T1, 4H454-AA.
T1 chain: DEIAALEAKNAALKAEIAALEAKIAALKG
The following applies: mean of both orientations.

Test [2] has as its target T2, 4H3343-AA.
T2 chain: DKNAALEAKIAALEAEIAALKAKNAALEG
The following applies: mean of both orientations.

Test [3] deals with T3, 4H2620-AA.
T3 chain: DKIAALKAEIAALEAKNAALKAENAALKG
The following applies: mean of both orientations.

The target of test [4] is T4, 4H678-AA.
T4 chain: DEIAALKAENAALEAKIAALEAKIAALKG
The following applies: mean of both orientations.

The target in test [5] is T5, 4H3162-AA.
T5 chain: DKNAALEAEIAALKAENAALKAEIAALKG
The following applies: mean of both orientations.

Test [6] addresses T6, 4H2754-AA.
T6 chain: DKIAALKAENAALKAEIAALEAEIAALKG
The following applies: mean of both orientations.

Test [7] addresses T7, 4H1845-AA.
T7 chain: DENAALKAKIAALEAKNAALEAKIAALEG
The settings on record: mean of both orientations.

Test [8] addresses T8, 4H2505-AA.
T8 chain: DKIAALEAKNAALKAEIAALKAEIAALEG
The following applies: mean of both orientations.

Test [9] concerns the target T9, 4H3133-AA.
T9 chain: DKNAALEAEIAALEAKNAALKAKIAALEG
The following applies: mean of both orientations.

Test [10] addresses T10, 4H2949-AA.
T10 chain: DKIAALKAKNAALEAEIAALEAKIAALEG
The following applies: mean of both orientations.

Test [11] addresses T11, 4H3588-AA.
T11 chain: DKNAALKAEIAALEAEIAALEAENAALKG
The following applies: mean of both orientations.

The target of test [12] is T12, 4H3378-AA.
T12 chain: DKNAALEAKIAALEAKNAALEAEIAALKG
The settings on record: mean of both orientations.

Test [13] deals with T13, 4H2190-AA.
T13 chain: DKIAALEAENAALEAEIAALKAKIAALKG
The following applies: mean of both orientations.

For test [14], the target named is T14, 4H2354-AA.
T14 chain: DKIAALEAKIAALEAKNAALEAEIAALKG
The settings on record: mean of both orientations.

For test [15], the target named is T15, 4H3056-AA.
T15 chain: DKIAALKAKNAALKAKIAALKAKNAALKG
The following applies: mean of both orientations.

In test [16] the target is T16, 4H1874-AA.
T16 chain: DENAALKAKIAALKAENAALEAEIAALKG
The settings on record: mean of both orientations.

The target of test [17] is T17, 4H2944-AA.
T17 chain: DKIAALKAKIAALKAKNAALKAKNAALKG
The settings on record: mean of both orientations.

The target of test [18] is T18, 4H2277-AA.
T18 chain: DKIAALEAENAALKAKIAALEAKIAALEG
The following applies: mean of both orientations.

The target of test [19] is T19, 4H3112-AA.
T19 chain: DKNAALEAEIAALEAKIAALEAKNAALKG
The following applies: mean of both orientations.

In test [20] the target is T20, 4H340-AA.
T20 chain: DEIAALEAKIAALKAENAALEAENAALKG
The settings on record: mean of both orientations.

Test [21] concerns the target T21, 4H2729-AA.
T21 chain: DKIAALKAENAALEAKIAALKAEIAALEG
The following applies: mean of both orientations.

The target in test [22] is T22, 4H2617-AA.
T22 chain: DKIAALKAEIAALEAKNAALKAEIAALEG
The settings on record: mean of both orientations.

For test [23], the target named is T23, 4H1401-AA.
T23 chain: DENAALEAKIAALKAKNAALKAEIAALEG

Test [24] addresses T24, 4H2621-AA.
T24 chain: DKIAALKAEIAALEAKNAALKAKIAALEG
The following applies: mean of both orientations.

Test [25] has as its target T25, 4H3129-AA.
T25 chain: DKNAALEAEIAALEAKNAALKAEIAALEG
The following applies: mean of both orientations.

For test [26], the target named is T26, 4H2903-AA.
T26 chain: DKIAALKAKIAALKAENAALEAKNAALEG
The settings on record: mean of both orientations.

The target of test [27] is T27, 4H2728-AA.
T27 chain: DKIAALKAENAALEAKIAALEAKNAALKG
The settings on record: mean of both orientations.

Test [28] has as its target T28, 4H380-AA.
T28 chain: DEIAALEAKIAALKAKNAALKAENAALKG
The following applies: mean of both orientations.

Test [29] concerns the target T29, 4H3414-AA.
T29 chain: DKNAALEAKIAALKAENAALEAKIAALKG
The following applies: mean of both orientations.

The target of test [30] is T30, 4H341-AA.
T30 chain: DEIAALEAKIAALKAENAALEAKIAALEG
The settings on record: mean of both orientations.

Test [31] concerns the target T31, 4H174-AA.
T31 chain: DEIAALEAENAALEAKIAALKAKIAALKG
The settings on record: mean of both orientations.

Test [32] addresses T32, 4H347-AA.
T32 chain: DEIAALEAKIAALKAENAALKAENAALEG
The following applies: mean of both orientations.

Test [33] addresses T33, 4H2162-AA.
T33 chain: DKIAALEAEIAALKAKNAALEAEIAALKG
The settings on record: mean of both orientations.

The target in test [34] is T34, 4H2592-AA.
T34 chain: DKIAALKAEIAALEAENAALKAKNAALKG
The settings on record: mean of both orientations.

Test [35] deals with T35, 4H3015-AA.
T35 chain: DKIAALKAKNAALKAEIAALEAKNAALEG
The following applies: mean of both orientations.

The target of test [36] is T36, 4H452-AA.
T36 chain: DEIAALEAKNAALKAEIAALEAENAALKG
The settings on record: mean of both orientations.

Test [37] deals with T37, 4H2732-AA.
T37 chain: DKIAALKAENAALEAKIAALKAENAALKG
The following applies: mean of both orientations.

For test [38], the target named is T38, 4H3073-AA.
T38 chain: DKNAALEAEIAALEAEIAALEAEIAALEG

The target in test [39] is T39, 4H1597-AA.
T39 chain: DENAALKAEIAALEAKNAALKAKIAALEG
The settings on record: mean of both orientations.

The target in test [40] is T40, O13-AA.
T40 chain: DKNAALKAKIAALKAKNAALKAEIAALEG
The following applies: mean of both orientations.

Read-outs that look alike come from different tables or passages of the source.

As for DENAALEAKIAALKAKNAALKAEIAALEG [4H1401-AA], the interaction score in test [1] was -1.2; in test [2], -1.44; in test [3], -1.63; in test [4], -0.21; in test [5], -0.375; in [6], -1.71. The interaction score in test [7] was -1.13; in test [8] it was -1.67; in [9], -0.677; in test [10], 0.393; in test [11], -0.275; in [12], -0.723. For the same molecule, the interaction score is 1.09 in [13]; -1.3 in test [14]; -1.2 in [15]; 1.26 in [16]; -1.67 in test [17]; -1.59 in test [18]. The interaction score in test [19] is -1.06; in test [20], -1.93; in [21] it was 0.705; in [22], -0.502; in test [23], -1.49.
As to DENAALEAENAALKAKIAALKAEIAALEG [4H1257-AA], the interaction score in test [24] was -0.883; in test [25], -1.9; in test [7], -1.49; in test [26] it was -1.62; in test [27], -0.459; in test [28], -1.14. The values for the interaction score in test [29], in [30] and in test [19] were -1.01, -1.24 and 0.173, respectively.
DENAALKAKIAALEAKNAALEAKIAALEG [4H1845-AA]: the interaction score was -1.86 in [3]; -1.73 in test [5]; -0.676 in test [9]; -1.56 in [11]; -1.04 in test [12]; -1.58 in test [15]. In addition, the interaction score in test [16] was -1.25; in test [19], -1.24; in test [20], -1.97.
Take DENAALKAEIAALKAENAALKAEIAALKG [4H1626-AA]: the interaction score in test [31] was -1.63; in test [32] it was -1.66; in test [33], -1.39; in test [34], -1.24.
As for DKIAALEAEIAALKAKNAALEAKIAALEG [4H2165-AA], the interaction score in test [1] was -0.571; in [35] it was -1.54; in test [2] it was -0.847; in [4], -0.25; in [32] it was -1.3; in test [6] it was -0.0505. The interaction score is -1.7 in [8]; -1.51 in test [36]; -1.21 in [10]; -1.12 in test [13]; -1.36 in test [37]; -1.76 in [14]. Also, the interaction score in test [17] was -1.53; in test [18], -1.36; in test [19] it was -0.868; in test [21], -1.3; in test [34] it was -0.973; in test [22], 0.892. Also, in test [38], the interaction score was -1.45.
Consider DENAALEAKIAALKAKIAALKAEIAALEG [4H1385-AA], for which the interaction score is 0.819 in test [31], -1.63 in test [33], -0.816 in test [39] and -1.62 in test [40].
With DKIAALEAENAALKAEIAALKAKIAALEG [4H2253-AA], the interaction score was -1.11 in [35]; -1.66 in test [32]; -1.74 in test [36]; -1.3 in [37]; -1.61 in test [34]; -0.681 in [38] (mean of both orientations).
In turn, DENAALEAKIAALKAEIAALEAKIAALKG [4H1350-AA] came in with an interaction score in test [40] of 0.34.
Turning to DKNAALKAEIAALEAENAALEAKIAALKG [4H3606-AA], the results for the interaction score in test [1] and in test [4] were 1.23 and -0.771, respectively.
Take DENAALEAEIAALEAKIAALEAKNAALKG [4H1064-AA]: the interaction score in test [24] is -1.07; in [25] it was -1.71; in test [26], 1.45; in test [27], -1.43; in test [28], -0.648; in [29], -0.952. The same molecule displayed an interaction score in test [30] of -1.26.
In the case of DEIAALEAENAALKAKNAALKAEIAALEG [4H249-AA], the interaction score is -1.1 in test [35]; -1.28 in [24]; -2.01 in [25]; 0.274 in test [32]; -1.53 in test [36]; -0.757 in [26]. Also, the interaction score was -0.302 in [37]; -0.387 in [27]; -1.27 in test [28]; 0.535 in test [29]; 0.538 in test [30]; -0.437 in test [34]. The molecule further registered an interaction score in [38] (mean of both orientations) of -1.75.
In the case of DEIAALEAENAALEAKIAALKAENAALEG [4H171-AA], the interaction score in test [31] is -1.16; in [33], -1.5; in [40] it was 2.21.
